Data: the Human Domainome abundance scans (Beltran et al. 2025)
± gives the uncertainty stated by the source.

Test: abundance fitness (aPCA) (normalised: wild type 0, dead -1); higher = more abundant; growth selection in yeast, the domain comes from the species named
Details: Homo sapiens

Substance	abundance fitness
Transcriptional activator Myb H184A, P10242	-0.732 ± 0.07
Transcriptional activator Myb A170F, P10242	-0.896 ± 0.19
Transcriptional activator Myb I155F, P10242	-0.467 ± 0.14
Transcriptional activator Myb T145I, P10242	0.228 ± 0.14
Transcriptional activator Myb D152R, P10242	-0.519 ± 0.068
Transcriptional activator Myb H184D, P10242	-0.82 ± 0.077
Transcriptional activator Myb T177R, P10242	-0.267 ± 0.047
Transcriptional activator Myb G197Y, P10242	-0.265 ± 0.14
Transcriptional activator Myb Y198K, P10242	-0.011 ± 0.13
Transcriptional activator Myb Q200K, P10242	0.002 ± 0.088
Transcriptional activator Myb A170N, P10242	-0.655 ± 0.28
Transcriptional activator Myb T148A, P10242	-0.286 ± 0.039
Transcriptional activator Myb E196N, P10242	-0.022 ± 0.089
Transcriptional activator Myb L173T, P10242	-0.28 ± 0.12
Transcriptional activator Myb I169G, P10242	-0.681 ± 0.071
Transcriptional activator Myb A180I, P10242	-0.005 ± 0.32
Transcriptional activator Myb M189F, P10242	-0.045 ± 0.16
Transcriptional activator Myb E194Y, P10242	-0.174 ± 0.24
Transcriptional activator Myb G197C, P10242	0.032 ± 0.098
Transcriptional activator Myb I155L, P10242	-0.068 ± 0.069
Transcriptional activator Myb R190N, P10242	-0.196 ± 0.19
Transcriptional activator Myb I155A, P10242	-0.503 ± 0.065
Transcriptional activator Myb K171S, P10242	0.016 ± 0.071
Transcriptional activator Myb T177N, P10242	-0.038 ± 0.12
Transcriptional activator Myb S187F, P10242	-0.26 ± 0.085
Transcriptional activator Myb W185D, P10242	-0.658 ± 0.17

Substance	abundance fitness
Transcriptional activator Myb R176I, P10242	-0.225 ± 0.16
Transcriptional activator Myb E196P, P10242	-0.114 ± 0.1
Transcriptional activator Myb M189R, P10242	-0.303 ± 0.064
Transcriptional activator Myb E151F, P10242	-0.927 ± 0.19
Transcriptional activator Myb H184L, P10242	-0.623 ± 0.052
Transcriptional activator Myb L199D, P10242	0.011 ± 0.12
Transcriptional activator Myb S202G, P10242	0.027 ± 0.047
Transcriptional activator Myb E168C, P10242	-0.464 ± 0.11
Transcriptional activator Myb L172S, P10242	-0.236 ± 0.085
Transcriptional activator Myb K144L, P10242	-0.101 ± 0.084
Transcriptional activator Myb N186V, P10242	-0.017 ± 0.072
Transcriptional activator Myb S203G, P10242	0.072 ± 0.066
Transcriptional activator Myb I181S, P10242	-0.694 ± 0.086
Transcriptional activator Myb I181A, P10242	-0.569 ± 0.084
Transcriptional activator Myb N186P, P10242	-0.804 ± 0.14
Transcriptional activator Myb I169M, P10242	-0.18 ± 0.093
Transcriptional activator Myb E150C, P10242	-0.219 ± 0.1
Transcriptional activator Myb L172E, P10242	-0.177 ± 0.089
Transcriptional activator Myb N179E, P10242	0.016 ± 0.069
Transcriptional activator Myb T188C, P10242	-0.037 ± 0.088
Transcriptional activator Myb T188I, P10242	0.001 ± 0.092
Transcriptional activator Myb Q195L, P10242	-0.057 ± 0.091
Transcriptional activator Myb I181E, P10242	-0.64 ± 0.11
Transcriptional activator Myb T148G, P10242	-0.31 ± 0.038
Transcriptional activator Myb E196I, P10242	-0.34 ± 0.12
Transcriptional activator Myb L173S, P10242	-0.933 ± 0.11

Substance	abundance fitness
Transcriptional activator Myb K144I, P10242	-0.206 ± 0.22
Transcriptional activator Myb L172V, P10242	-0.36 ± 0.073
Transcriptional activator Myb S187W, P10242	-0.108 ± 0.07
Transcriptional activator Myb N179I, P10242	0.127 ± 0.14
Transcriptional activator Myb S203E, P10242	0.079 ± 0.16
Transcriptional activator Myb E168N, P10242	-0.492 ± 0.17
Transcriptional activator Myb Y156A, P10242	-0.056 ± 0.049
Transcriptional activator Myb G163A, P10242	-0.329 ± 0.069
Transcriptional activator Myb T148E, P10242	-0.443 ± 0.065
Transcriptional activator Myb E168V, P10242	-0.61 ± 0.077
Transcriptional activator Myb Y156N, P10242	-0.33 ± 0.12
Transcriptional activator Myb W147P, P10242	-0.532 ± 0.052
Transcriptional activator Myb W166R, P10242	-0.761 ± 0.062
Transcriptional activator Myb W166Y, P10242	-0.377 ± 0.14
Transcriptional activator Myb Q195F, P10242	-0.244 ± 0.15
Transcriptional activator Myb K192C, P10242	-0.024 ± 0.12
Transcriptional activator Myb E201I, P10242	-0.156 ± 0.2
Transcriptional activator Myb I155S, P10242	-0.916 ± 0.13
Transcriptional activator Myb W185N, P10242	-0.55 ± 0.14
Transcriptional activator Myb T145E, P10242	0.055 ± 0.12
Transcriptional activator Myb E150F, P10242	-0.129 ± 0.16
Transcriptional activator Myb R190Y, P10242	-0.461 ± 0.18
Transcriptional activator Myb K192Q, P10242	-0.337 ± 0.16
Transcriptional activator Myb A170V, P10242	-0.428 ± 0.063
Transcriptional activator Myb I169F, P10242	-0.516 ± 0.12
Transcriptional activator Myb I155H, P10242	-1.04 ± 0.21
